Results published in the DeepSol protein solubility set.

Assay: soluble on expression in E. coli; label from the status in PepcDB or PDB records

Sequence | soluble on expression in E. coli
MKQLTILGSTGSIGCSTLDVVRHNPDSFRVIALVAGKNVARMAEQCLEFSPRYAVMDDTSSAEQLKIMLQQHGSRTEVLSGQQAACEMAALDEVGHVMAAIVGAAGLLPTLAAIRAGKTILLANKESLVTCGRLFMDEVKRSNARLLPVDSEHNAIFQSLPQSIQHNLGYADLEQNGVTSILLTGSGGPFRETPMCDLAAMTPDQACRHPNWSMGRKISVDSATMMNKGLEYIEARWLFNASARQMEVLIHPQSVIHSMVRYQDGSVLAQLGEPDMRTPIAHTMAWPNRVTSGAQPLDFCKLSALTFSAPDYQRYPCLKLAMEAFEQGQAATTALNAANEITVAAFLAQQIRFTDIAGLNLAVLERMDLQEPASVEDVLQVDAIAREVARKQVIRLSR | not soluble
MKQPEEELQETLTELDDRAVVDYLRHHPEFFIRNAHAVEAMRVPHPVRGTVSLVEWHMARARNHINVLEENMTLLMEQAHANESLFYRLLHLQSRLVAADSLDEMLVRFHRWARDLGLAGATLRLFPDRWRLGAPSRYTHLALNRQAFEPLRIQRLGQSQHYLGPLNGPELLVVLPEAKAVGSVAMSMMGSDGGLGVILFSSRDPHHYQPGQGTQLLQEIALMLPELLERWIKRVLEHHHHHH | not soluble
MKQSKEEFIKSEGADFPGKTYVDCVLQHVFDFQRNYLLKDMFQVHKAHIVMLTEENLMKKEEAKFILHALKKVEEIPEEQLLYTEQHEDLFFLVEHLISQEAKSDFVSNMHIGRSRNDMGVTMYRMSLRRYVLRLMEHHLLLQESILQLAADHKETIMPAYTHTQPAQPTTFGHYTLAIYDTMQRDLERMKKTYKLLNQSPMGAAALSTTSFPIKRERVADLLGFTNVIENSYDAVAGADYLLEVSSLLMIMMTNTSRWIHDFLLLATKEYDGIAVARPYVQISSIMPQKRNPVSIEHARAITSSAPGEAFTVFQMIHNTPFGEIVDTEDDLQPYLYKGIEKAIRVFCILNAVIRTMKVEEDTLKRRSYKHAITITDFADVLTKNYGIPFRHAHHAASVIANMSLEQKKELHELCFKDVNIYLQEKFKIQLLEKEWEEIISPEAFIQKRNVYGGPSKKEMERMINNRKELFRKEEEVFEEEKQRILQAENDLNMLASNIIES | not soluble
MKRIAFVGSVGAGKTTLFNALQGNYTLARKTLAVEFNDKGDIDTPGEYFSHPRWYHALITTLQDVDMLIYVHGANDPESRLPAGLLDIGVSKRQIAVISKTDMPDADVAATRKLLLETGFEEPIFELNSHDPQSVQQLVDYLASLTKQEEAGEKTHHSELEHHHHHH | soluble
MKRIGYARTTIIEDDLKNQLTTLQSFGCDDIFQETFDPQAEISVLDEVEKLLSAGDTLIVCKLHHLGKTTRQLTDFMKMLKEKQVDFVSISEGIDTHLPTGEAYFQLMESLSAMECALIKERTLVGLHKARENGKVGGRPKIDGRTVRKIRALYYENKETIQFISNKCGVSVGTCYKYINLPETDVERLYS | not soluble
MKRIRLWGLMAGLLLLLVGCGRAETTGVTKPVTTQGHRYIPTLFFHGWGSSYHAETHMADAIVKAGKTQTIVRAMVAKNGTVTLKGHFRSGDYRPIVEVNFANNRSSDYPTVGRWAKNVVVALQRTYGITSFNMVGHSMGNMAITYYLLANAQNKRLPQLRQQVAIAGHFNGILGMDDSPNQMTLNAAGRPNKLRPAYRQLLGLRRVYPRQQVRVLNIYGDKGDGTHSDGSVSNASSRSLRYLVAARARSYREVKLTGKHAQHSQLHENAQVDRLLIDFLWPTH | not soluble
MKRLIVGISGASGAIYGVRLLQVLRDVTDIETHLVMSQAARQTLSLETDFSLREVQALADVTHDARDIAASISSGSFQTLGMVILPCSIKTLSGIVHSYTDGLLTRAADVVLKERRPLVLCVRETPLHLGHLRLMTQAAEIGAVIMPPVPAFYHRPQSLDDVINQTVNRVLDQFAITLPEDLFARWQGA | not soluble
MKRLLLIIICTLGILSCGVPKEVTVPDKHLNYKDNIVLYNEKPYTGKVKLKKIAEKEQFEEGYISVKDGKLEGITDFKNDAAKTHFKFDVKSGKFNGEYILKHPLIGDFVMNFENGELKELKGKFPNDINQDLIFDKDGNVNGLIEQGGKQLDFQGGVAVKDTLKVKMFLDTETKQKLVTEVYEGDKLMAREENILLFTVKDFTEELLPVTGLQ | not soluble
MKRLLVFLPLLLLACAPKPEAEAPQTTAPLRVQVRTLKAEPGLLTREARASANVVAEKESLVAAGASGRVVRTLPAGTRVRAGEGVVFLDPAPFQEALAQAKLALRQAEENLARAEAQTEGNRKALEAQLAAAEAQLAAAKRRYEEGKALLALGALAPLELKGLEAQYLQAQSAYENAKEALARLEREDDLRLLRLQVEAARLQVQQAERNLKESVVRAPFAGEVVEVYVKEGEFTGAGSRAFRLATTDRLLVKVYLPPERAAALTEDTAFRVRQNGKEVEARLQAKSDLPGQNRLVEVTLRPTGPLLPGAAEVRYPEVLAEGLLLPAGAVRTEDGEAFVYVVEEGRARKRPVRLLAQEGGRAAVAGLEAGEAVVYPVPEGLEDGDLVEVVP | soluble
MKRRESSPLISTILGIRYGRCVMGNFSIVIPTYNERDNIVKLVEEINRIVPYNSRILIVDDNSPDGTALILQELNIHNLTVLIRHNERGLGSALRYGISKAIELESDFIVTMDADFSHNPKYLPEMMKIALNENCDLVIGSRYVIGGGIENWSLSRRIISKGANYLFKLVSHSPIMDNTSNYRIYSRRAALLALECDTTNGYEFQICSIFKIIRNNLKIKEYPIIFVDRKTGKSKLNLKEILNWFLYIIRLSLSFLEHHHHHH | not soluble
MKSERILVVKTEDFLKEFGEFEGFMRVNFEDFLNFLDQYGFFRERDEAEYDETTKQVIPYVVIMDGDRVLITKRTTKQSEKRLHNLYSLGIGGHVREGDGATPREAFLKGLEREVNEEVDVSLRELEFLGLINSSTTEVSRVHLGALFLGRGKFFSVKEKDLFEWELIKLEELEKFSGVMEGWSKISAAVLLNLFLTQN | not soluble
MKSGEKDYSVKEAMIFSQRIAQLSKALWKCVEKDWQQWIKPYDLNINEHHILTIAYHLKGASISEIAKFGVMHVSTAFNFSKKLEERGYLVFSKKEDDKRNTYIEITDKGEELLLRLMEEYDPENNSVFNGALALRNFYGKFPENIELIAILRNIYGQDFIDIFEKSLEDIEENFTESDQKLVKK | not soluble
MKSITQLENKKVLVLGLAKSGEAAARLLAKLGAIVTVNDGKAFEENPSAQSLLEEGIKVVCGGHPLELLDENFELMVKNPGIRYDNPMVARALEKEIPVWTEVELAYLVSEAPIIGITGSNGKTTTTTMIADVLNHGGKSGVLSGNIGFPASEVAQSVTNQDTLVMELSSFQLMGIESFHPHIAVITNLMPTHIDYHGSFEEYVAAKWNIQNEMTSDDFIILNFNQDLAKELATQTNAQVVPFSTVEKVDGAYLENGGLYFKGELLMHADELGVPGSHNVENALATIAVAKLSGVSNQAIKETLSSFGGVKHRLQFVDTIDDVKFYNDSKSTNILATQKALSGFDNSKVILIAGGLDRGNEFDELIPDITGLKKMVILGESAPRVKRAADKAGVTYLDAKDVADATRIAFEQASAGDVVLLSPANASWDMYKNFEVRGDEFITTVERLKG | not soluble
MKSKLKLHGFNNLTKTLSFNIYDICYAETPQDQQAYVEYINSVYDAERLTRILTDVVDIIGANILNIARQDYDPQGASVTILISEQPVTPTESQIEESPGPLPETILAHLDKSHITVHTYPEIHPVDGIATFRVDIDVSTCGVISPLKALNYLIHKFESDIVTVDYRVRGFTRDVEGKKHFIDHEINSIQNYLSEDTRNGYQMTDVNVYQENLFHTKMLLKQFELDNYLFGDATSNLSAEQREQVTAKVKHEMLEIFYGRNVAV | not soluble
MKSMEIDVEHIFDCLDRYGKGELTEKQLTKGVTDDEKMFLIMHQGLLGGNTDSEEEFNVLDWLGEEESFFMIVEINENLCRKAESILEEIGVEMPDVIESFLKQLVETKQLPVVVND | not soluble
MKSNTSQQRPYQEVGAMIRDLIVQTPYRPGERLPPEREIAERLNVTRTVVREALIMLEIKGLVEVRRGAGIYVLDSADNNEMEGADVNHCNDAGPFELLQARQLLESNIAEFAALQATREDIIKMRQALQLEERELASSAPGGSESGDMQFHLAIAEATHNSMLVELFRQSWQWRENNPMWLQLHSHLGDTLYRKEWLVDHKQILAALIKKDARAAKLAMWQHLENVKQRLLEFSNVDDIYFDGYLFESWPLDNVDA | not soluble
MKSPAPSRPQKMALIPACIFLCFAALSVQAEETPVTPQPPDILLGPLFNDVQNAKLFPDQKTFADAVPNSDPLMILADYRMQQNQSGFDLRHFVNVNFTLPKEGEKYVPPEGQSLREHIDGLWPVLTRSTENTEKWDSLLPLPEPYVVPGGRFREVYYWDSYFTMLGLAESGHWDKVADMVANFAHEIDTYGHIPNGNRSYYLSRSQPPFFALMVELLAQHEGDAALKQYLPQMQKEYAYWMDGVENLQAGQQEKRVVKLQDGTLLNRYWDDRDTPRPESWVEDIATAKSNPNRPATEIYRDLRSAAASGWDFSSRWMDNPQQLNTLRTTSIVPVDLNSLMFKMEKILARASKAAGDNAMANQYETLANARQKGIEKYLWNDQQGWYADYDLKSHKVRNQLTAAALFPLYVNAAAKDRANKMATATKTHLLQPGGLNTTSVKSGQQWDAPNGWAPLQWVATEGLQNYGQKEVAMDISWHFLTNVQHTYDREKKLVEKYDVSTTGTGGGGGEYPLQDGFGWTNGVTLKMLDLICPKEQPCDNVPATRPTVKSATTQPSTKEAQPTPLEHHHHHH | soluble
MKSPIVSANLVTRDNDKIAEKTGNIYESLVVISRRARQISIKIKEELNSKLAEFASKEDNLEEIFENREQIEISKYYERMPKPSTLATEEFLEDKVMFRHTGIASATPRKEDEK | not soluble
MKSQPYTASSVTSTSTTHHPWMPISLREPPSKFQKLSTSDAAPLHNVCSSLKMKSTKPSRKRPSPKESDLPPLPSISTLFDSGSSSHSSSSSSNSSYGSYCQFSPEGSYTMYHWPMNYIPYVSPDVTITATTSTSTNAMASPDPIMLSSPPKQPTIEHTPINQPLFIQTADYPYDYSAPDPTGGYPSSATINANQLLLRPVPNGHV | not soluble
MKSRFRFHLCCVCMLALAVAGCKVKRPDDVISESKMENLLYDYHLAKSMGDNLPYNENYKKTLYLDAVFKKYGTTEAVFDSSLVWYTRNTEVLSKIYEKVSKRLKAQQNEINHLIALRDNKPKMSEPGDSIDVWPWKCFIRLTGEMMNDQYAFVLPVDTNYKDRDTLVWEVRYRFLEPMLADSLRAVTMAMQVIYEKDTLNHLETITDPGVHQIRLYADTLGVMKEIKGFIYYPGVQGEKAGALLADRFALTRYHCSDSLSVAERDSINQLEALKTDSLKKVSDQKDTKISKDSLRKVDDLKDNQRISPEEMNRRRTVTPEKKPEQIEVEQHIQQEKIEQRRERQLNQRRNQQRRQSPSR | not soluble
MKTENAKTNQTLVENSLNTQLSNWFLLYSKLHRFHWYVKGPHFFTLHEKFEELYDHAAETVDTIAERLLAIGGQPVATVKEYTEHASITDGGNETSASEMVQALVNDYKQISSESKFVIGLAEENQDNATADLFVGLIEEVEKQVWMLSSYLG | soluble
MKTFSDRWRQLDWDDIRLRINGKTAADVERALNASQLTRDDMMALLSPAASGYLEQLAQRAQRLTRQRFGNTVSFYVPLYLSNLCANDCTYCGFSMSNRIKRKTLDEADIARESAAIREMGFEHLLLVTGEHQAKVGMDYFRRHLPALREQFSSLQMEVQPLAETEYAELKQLGLDGVMVYQETYHEATYARHHLKGKKQDFFWRLETPDRLGRAGIDKIGLGALIGLSDNWRVDSYMVAEHLLWLQQHYWQSRYSVSFPRLRPCTGGIEPASIMDERQLVQTICAFRLLAPEIELSLSTRESPWFRDRVIPLAINNVSAFSKTQPGGYADNHPELEQFSPHDDRRPEAVAAALTAQGLQPVWKDWDSYLGRASQRL | not soluble
